{"source": "paper PMC48140", "about": "(BMC Cell Biology, 2001)", "proteins": {"B1": {"name": "MP20, lens fiber cell membrane protein (natural protein, ovine, UniProt A0ACI6P5E9 1-173, looked up)", "chain": "MYSFMGGGLFCAWVGTILLVVATATDHWMQYRLSGAFAHQGLWRYCLGTKCYLQTESIAYWNATRAFMILSSLCATSGIIMGIVAFAQQPTFTRLSRPFSAGIMFFASTFFVLLALAIYTGVTVSFLGRRFGDWRFSWSYILGWVALLMTFFAGIFYMCAYRMHECRRLSTPR"}}, "molecular_target": "the molecule itself", "assay": "SDS-PAGE with immunoblot"}
{"protein": "B1", "values": [{"measurement": "stoichiometry N", "value": 2}]}
